{"source": "patent US20210221878A1", "key": {"[1]": {"target": "αSyn WT PFF (preformed fibrils of recombinant wild-type human α-synuclein) (human) (UniProt P37840)", "experiment": "ratio of monomer to PFF binding potency, solution competition ELISA"}, "[2]": {"target": "full-length human recombinant wild-type α-synuclein monomer (human) (UniProt P37840)", "experiment": "solution competition ELISA, free antibody captured on PFF plate; binding potency, monomer (ng/ml)"}, "[3]": {"target": "αSyn WT PFF (preformed fibrils of recombinant wild-type human α-synuclein) (human) (UniProt P37840)", "experiment": "solution competition ELISA, free antibody captured on PFF plate; binding potency, PFF (ng/ml)"}}, "data": [{"substance": "Syn303 (antibody)", "values": [{"measurement": "Mono/PFF Ratio", "setting": "[1]", "value": 0.47}, {"measurement": "EC50", "setting": "[2]", "value": 0.0512, "unit": "µg/mL"}, {"measurement": "EC50", "setting": "[3]", "value": 0.109, "unit": "µg/mL"}]}, {"substance": "MJFR1 (antibody)", "values": [{"measurement": "Mono/PFF Ratio", "setting": "[1]", "value": 0.27}, {"measurement": "EC50", "setting": "[2]", "value": 0.008, "unit": "µg/mL"}, {"measurement": "EC50", "setting": "[3]", "value": 0.0292, "unit": "µg/mL"}]}, {"substance": "LB509 (antibody)", "values": [{"measurement": "Mono/PFF Ratio", "setting": "[1]", "value": 38}, {"measurement": "EC50", "setting": "[2]", "value": 0.062, "unit": "µg/mL"}, {"measurement": "EC50", "setting": "[3]", "value": 0.0016, "unit": "µg/mL"}]}, {"substance": "MJFR14642 (antibody)", "values": [{"measurement": "Mono/PFF Ratio", "setting": "[1]", "value": 7230}, {"measurement": "EC50", "setting": "[2]", "value": 3.66, "unit": "µg/mL"}, {"measurement": "EC50", "setting": "[3]", "value": 0.00051, "unit": "µg/mL"}]}]}
